Reference: patent US7105164B1, “HIV-specific cytotoxic T-cell responses” (priority 1999, dated 2006)
“Also recorded” adds a separate entry of the source.

Target: T1, HLA-A2 on T2 cells (Homo sapiens, UniProt P04439, D140Y/D185E/D98H/E176V/E277Q/G131W/G231S/I119V/I121R/I166T/I218V/L300P/L318F/N151K/N90K/P208A/P217A/Q86G/Q94H/R138H/R169H/T345S)
T1 construct: T2 cell line expressing the HLA-A2 molecules was obtained from Dr Peter Creswell; endogenous in cells; host or cells: T2 cell line (TAP-deficient human cell line)
Test: in vitro HLA-A2 stabilization (peptide-induced MHC class 1 assembly assay, FACS) on T2 cells
Format: cell-based
Settings: FIG. 1; for binding to and stabilization of membrane-bound HLA-A2 (shift of fluorescent peak): BB7.2 antibody, FACS
Method: Location of the potential CTL containing motifs of the HIV-1 (LAI) Rev protein has been predicted by the reported peptide-binding motif algorithms. […] The ability of the peptides containing these motifs to bind and stabilize membrane-bound HLA-A2 molecule was assessed using the T2 cell line. The cell line has been well documented to have defective TAP transporter function resulting in the majority of the intracellularly generated peptides being unable to be transported into the endoplasmic reticulum to associate with the newly synthesized HLA class 1 molecules, i.e. HLA-A2 (see references 4, 5). […] Upon interaction with suitable peptides introduced exogenously, the stability of the HLA-A2 molecules can be restored.
T2 cell line expressing the HLA-A2 molecules was obtained from Dr Peter Creswell at the Howard Hughes Research Institute of Yale University. The cells were propagated in Iscove's complete medium (Iscove's medium supplemented with 10% heat-inactivated bovine serum, 120.0 units per ml of penicilin G sodium, 120 μg per ml of streptomycin sulphate, and 0.35 mg per ml of L-glutamine). The ability of individual 8 to 13 mer peptides, prepared as described in Example 1 and identified in Table 1, to bind and modulate the stability of the A2 molecules on T2 cells was determined using a peptide-induced MHC class 1 assembly assay, which was modified from a protocol described by Yuping Deng et al. (ref. 6).
In essence, 1×10^6 T2 cells were incubated with a specified concentration of the test peptide in 250.0 μl of Iscove's serum-free medium (Iscove's medium supplemented with 120.0 units per ml of penicillin G sodium, 120.0 μg per ml of streptomycin sulphate and 0.35 mg per ml of L-glutamine) in a sterile Eppendorf tube at 37° C. overnight. The cells were then incubated on ice for 30 min before 1.0 ml of Iscove's complete medium supplemented with 5.0 μg per ml of brefeldin A, 12.5 μg per ml of anisomycin and 5.0 μg per ml of cyclohexamide was added. The samples were then incubated for 3.0 hr in a 37° C. CO2 incubator.
In the presence of the drugs, further protein synthesis and intracellular delivery of HLA-A2 molecules to the cell surface are inhibited, and de-stabilization of the conformation of the membrane-bound class 1 molecules at the physiological temperature occurs.
The cells were then washed twice with ice-cold PBA (a buffer containing 0.9% sodium chloride, 0.5% bovine serum albumin and 0.02% sodium azide). 100.0 μl of PBA containing 5.0 μg of a conformation-sensitive HLA-A2-specific mouse monoclonal antibody, BB7.2 (ref. 7), was then added to each test sample. The reaction was allowed to take place on ice for 45 min. The cells were then washed three times with ice-cold PBA.
The binding of BB7.2 was then detected by adding […] containing 1.0 μg of goat anti-mouse IgG F(ab′) fluorescein (FITC) conjugate to each cell sample. After 30 min incubation on ice, the cells were washed twice with PBA, and twice again with PBS, pH 7.2. Cells were fixed immediately after washing was completed by adding 100.0 μl of 1.0% paraformaldehyde to the cell pellet. The cells were gently resuspended and were FACS analysed usually within three days after the experiments were completed.
The fluorescence index, which is an indicator for increased density of membrane-bound A2 molecules, was calculated by dividing the mean fluorescence of an experimental sample (peptide treated T2 cells) by the mean fluorescence of the control sample (T2 cells not treated with peptide).

| Sequence | binding to and stabilization of membrane-bound HLA-A2 (shift of fluorescent peak) | order of potency by comparison of fluorescence indices |
| --- | --- | --- |
| ILVESPAVL (Human immunodeficiency virus type 1) [CLP-72] | bound to HLA-A2 on T2 cells; also recorded: able to bind and stabilize; also recorded: capable of binding to HLA-A2 on T2 cells | CLP-177>CLP-72>CLP-178>CLP-182 |
| PLQLPPLERLIL [CLP-182] | bound to HLA-A2 on T2 cells; also recorded: able to bind and stabilize; also recorded: capable of binding to HLA-A2 on T2 cells | CLP-177>CLP-72>CLP-178>CLP-182 |
| YLGRSAEPV (Human immunodeficiency virus type 1) [CLP-177] | bound to HLA-A2 on T2 cells; also recorded: able to bind and stabilize; also recorded: capable of binding to HLA-A2 on T2 cells | CLP-177>CLP-72>CLP-178>CLP-182 |
| YLGRSAEPVPL (Human immunodeficiency virus type 1) [CLP-178] | bound to HLA-A2 on T2 cells; also recorded: able to bind and stabilize; also recorded: capable of binding to HLA-A2 on T2 cells | CLP-177>CLP-72>CLP-178>CLP-182 |
